Like-named read-outs stand apart in the source and are kept apart here.

In data set [1] the target is T1, D2-Zn-WH helix4A (human, UniProt P46063 282-616, F420A;F424A;S427A;S428A). Nature of the data set: fluorescence anisotropy. Background: Fluorescence polarisation rises when a labelled molecule tumbles more slowly, as on binding a larger partner.
The target in data set [2] is T2, D2-Zn-WH (human, UniProt P46063 282-616). The experiment in a line: fluorescence anisotropy.
For data set [3], the target named is T2, D2-Zn-WH. Nature of the data set: fluorescence anisotropy. This is another data set of the same source.
The target in data set [4] is T2, D2-Zn-WH. Nature of the data set: fluorescence anisotropy. This is another data set of the same source.
The target in data set [5] is T1, D2-Zn-WH helix4A. The experiment in a line: fluorescence anisotropy. The source holds these as a separate data set.
In data set [6] the target is RECQ1T1 (human, UniProt P46063 49-616). Nature of the data set: fluorescence anisotropy.
Data set [7] has as its target RECQ1T1,helix4A (human, UniProt P46063 49-616, F420A;F424A;S427A;S428A). Nature of the data set: fluorescence anisotropy.
Data set [8] deals with the molecule itself. Nature of the data set: SEC.

T1 sequence (P46063 282-616 F420A/F424A/S427A/S428A): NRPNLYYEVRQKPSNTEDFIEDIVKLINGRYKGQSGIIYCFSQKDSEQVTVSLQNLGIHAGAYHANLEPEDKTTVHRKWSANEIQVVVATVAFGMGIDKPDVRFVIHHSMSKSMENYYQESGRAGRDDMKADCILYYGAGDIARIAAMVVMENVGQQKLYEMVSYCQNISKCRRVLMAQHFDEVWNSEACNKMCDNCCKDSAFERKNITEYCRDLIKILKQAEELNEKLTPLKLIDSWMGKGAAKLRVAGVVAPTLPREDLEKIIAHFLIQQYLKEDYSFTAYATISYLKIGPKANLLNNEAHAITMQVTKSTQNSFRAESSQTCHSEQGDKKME

B1: Rec20_FL/Rec20R_3oh 20/10-mer 3' tailed duplex (dsDNA)
DNA 1: GGATCTCGACGCTCTCCCTT
DNA 2: GTCGAGATCC
For B1, the Kd (in general, the equilibrium constant for the complex coming apart) in data set [1] turned out to be 5700 ± 1100 nM; in data set [2] it was 1970 ± 300 nM.
Turning to GGATCTCGACGCTCTCCCTT (ssDNA) [Rec20_FL ssDNA 20-mer], in data set [3], binding was put at a Kd of 1480 ± 110 nM.

B2: Rec20_FL/Rec20R 20 bp blunt duplex (dsDNA)
DNA 1: GGATCTCGACGCTCTCCCTT
DNA 2: AAGGGAGAGCGTCGAGATCC
Consider B2, for which the figures for the equilibrium dissociation constant (Kd) in data set [4] and in data set [5] were 1170 ± 120 nM and 2080 ± 150 nM, respectively.

B3: Fork30T_R_FL/Fork30T_F forked duplex (dsDNA)
DNA 1: TTTTTTTTTTTTTTTTTTTTTTTTTTTTTTCGTACCCGATGTGTTCGTTC
DNA 2: GAACGAACACATCGGGTACGTTTTTTTTTTTTTTTTTTTTTTTTTTTTTT
Consider B3, for which the Kd in data set [6] was 87 ± 16 nM; in data set [7] it was 193 ± 27 nM.

B4: RECQ1^T1 (near full-length human RECQ1, amino acid 49–616) (enzyme, UniProt P46063 49-616, looked up)
chain: CLEDSDAGASNEYDSSPAAWNKEDFPWSGKVKDILQNVFKLEKFRPLQLETINVTMAGKEVFLVMPTGGGKSLCYQLPALCSDGFTLVICPLISLMEDQLMVLKQLGISATMLNASSSKEHVKWVHAEMVNKNSELKLIYVTPEKIAKSKMFMSRLEKAYEARRFTRIAVDEVHCCSQWGHDFRPDYKALGILKRQFPNASLIGLTATATNHVLTDAQKILCIEKCFTFTASFNRPNLYYEVRQKPSNTEDFIEDIVKLINGRYKGQSGIIYCFSQKDSEQVTVSLQNLGIHAGAYHANLEPEDKTTVHRKWSANEIQVVVATVAFGMGIDKPDVRFVIHHSMSKSMENYYQESGRAGRDDMKADCILYYGFGDIFRISSMVVMENVGQQKLYEMVSYCQNISKCRRVLMAQHFDEVWNSEACNKMCDNCCKDSAFERKNITEYCRDLIKILKQAEELNEKLTPLKLIDSWMGKGAAKLRVAGVVAPTLPREDLEKIIAHFLIQQYLKEDYSFTAYATISYLKIGPKANLLNNEAHAITMQVTKSTQNSFRAESSQTCHSEQGDKKME
Turning to B4, the stoichiometry N (commonly the number of molecules, sites or subunits per partner or assembly) in data set [8] is 2.

These data come from publication PMC8599812 (Nucleic Acids Research, 2021).
